Source: publication PMC11481497

Target: His-CaDpb3 (Dpb3 subunit of DNA polymerase epsilon of C. albicans, wild type) (C. albicans)
Assay: ITC; 20 µM wild-type or mutant CaDpb3 in the sample cell, 100 µM CaDpb4 injected from the syringe (25 injections of 1.5 µL); 25°C; 20 mM HEPES pH 7.4, 150 mM NaCl; one-site binding model

- Kd: 55 µM
- stoichiometry N: 1
Substance: His-CaDpb4 (Dpb4 subunit of DNA polymerase epsilon of C. albicans, wild type) (from UniProt A0A1D8PG40 1-261) (natural protein)
